Biological target: T1, human claudin-4 (full-length), wild type (human, UniProt O14493 1-209)
T1 construct: also called claudin-4 wild type; WT
T1 sequence (looked up): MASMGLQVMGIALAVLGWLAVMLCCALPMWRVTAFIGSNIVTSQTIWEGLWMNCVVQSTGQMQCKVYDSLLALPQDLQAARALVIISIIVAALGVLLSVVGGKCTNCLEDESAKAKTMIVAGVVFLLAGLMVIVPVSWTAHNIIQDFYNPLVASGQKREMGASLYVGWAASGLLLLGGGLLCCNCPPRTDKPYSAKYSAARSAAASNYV
Assay: pull-down
Details: both partners purified

B1: glutathione-S-transferase-tagged C-CPE (residues 185′–319′), wild type (domain or fragment)
chain: RCVLTVPSTDIEKEILDLAAATERLNLTDALNSNPAGNLYDWRSSNSYPWTQKLNLHLTITATGQKYRILASKIVDFNIYSNNFNNLVKLEQSLGDGVKDHYVDISLDAGQYVLVMKANSSYSGNYPYSILFQKF
- binding result: binds

Reference: PMC5028891 (Scientific Reports, 2016)
